{
  "source": "patent US11351270B2",
  "about": "“Junctophilin-2 fragments and uses therefor” (University of Iowa Research Foundation, priority 2016, dated 2022)",
  "molecules": {"B1": {"name": "JP2NT: shorter form of Junctophilin-2 including the first 565 amino acids of N-terminus of JP2 (protein, UniProt Q9BR39 1-565, looked up, fragment)", "chain": "MSGGRFDFDDGGAYCGGWEGGKAHGHGLCTGPKGQGEYSGSWNFGFEVAGVYTWPSGNTFEGYWSQGKRHGLGIETKGRWLYKGEWTHGFKGRYGIRQSSSSGAKYEGTWNNGLQDGYGTETYADGGTYQGQFTNGMRHGYGVRQSVPYGMAVVVRSPLRTSLSSLRSEHSNGTVAPDSPASPASDGPALPSPAIPRGGFALSLLANAEAAARAPKGGGLFQRGALLGKLRRAESRTSVGSQRSRVSFLKSDLSSGASDAASTASLGEAAEGADEAAPFEADIDATTTETYMGEWKNDKRSGFGVSERSSGLRYEGEWLDNLRHGYGCTTLPDGHREEGKYRHNVLVKDTKRRMLQLKSNKVRQKVEHSVEGAQRAAAIARQKAEIAASRTSHAKAKAEAAEQAALAANQESNIARTLARELAPDFYQPGPEYQKRRLLQEILENSESLLEPPDRGAGAAGLPQPPRESPQLHERETPRPEGGSPSPAGTPPQPKRPRPGVSKDGLLSPGAWNGEPSGEGSRSVTPSEGAGRRSPARPATERMAIEALQAPPAPSREPEVALYQG", "modifications": "GST or adenoviral forms", "notes": "shorter form of Junctophilin-2 including the first 565 amino acids of N-terminus of JP2"}},
  "key": {"[1]": {"tested_on": "MEF2C-mediated transcriptional activity", "assay": "MEF2 luciferase reporter assay", "type": "cell-based", "settings": "293 cells co-transfected with MEF2C and PMEF2-firefly, relative to PSV40-Renilla", "protocol": "Firefly and Renilla reporter plasmids and JP2NT variants were co-transfected into HEK293 cells. The protein of the cells was harvested 48 hours after transfection. Promega dual luciferase system was used to evaluate the luciferase activity.\nTo examine whether JP2NT regulates MEF2-mediated transcription, a luciferase reporter system with firefly cDNA driven by the desmin enhancer-derived MEF2 binding site (PMEF2-firefly) (Naya et al., 1999) was used."}, "JP2-KD cardiomyocytes": {"tested_on": "JP2-KD cardiomyocytes", "assay": "Confocal Ca2+ imaging in JP2-KD cardiomyocytes after adenoviral expression", "type": "cell-based, mouse", "settings": "1-Hz field stimulation", "source_text": "Specifically, conditional shJP2 mice (provided by Dr. Wehrens) (van Oort et al., 2011) were crossed with mice carrying the cardiac-specific α-myosin heavy chain promoter upstream of Cre (% MHC-Cre, also FVB-Tg(Myh6-cre)2182Mds/J, The Jackson Laboratory). The shJP2 mice were maintained on a C57BL/6 background for more than 10 generations. The αMHC-Cre mice were maintained on an FVB background. PCR was used to genotype the offspring. The near complete depletion of JP2 protein in JP2-KD (αMHC-Cre X shJP2) hearts has been reported recently (Chen et al., 2013). JP2-KD mice were sacrificed at 2 months of age for isolation and culture of ventricular cardiomyocytes as described below.\nGenecarrior-1 (Epoch Lab) was used to transfect plasmids into HEK293T cells. Isolation and culture of cardiomyocytes were performed as described previously (Guo et al., 2012). […] Ca^2+ Imaging experiments were performed 40 hours after adenoviral infection.\nCells were loaded with Rhod-2AM at 37° C. for 20 minutes, followed by washing with Tyrode's solution at room temperature for 15 minutes before Ca^2+ imaging. Confocal images were acquired using a ×63, 1.3 numerical aperture oil immersion objective mounted on a Zeiss LSM 510 confocal microscope. Confocal line scanning was used to record Ca^2+ signals. Steady-state Ca^2+ transients were recorded in Tyrode's solution containing 1.8 mM Ca^2+ under field stimulation of 1 Hz. At least five steady-state transients for each cell were analyzed and averaged to represent Ca^2+ signals of the cell. Ca^2+ imaging data were analyzed by using a home-complied software, CaTeasy, which is coded in MATLAB 2013a (Mathworks). Briefly, the program normalizes Ca^2+ transient images on a column-by-column basis (512 columns/image). The characteristic parameters of normalized transients were detected automatically. The firing time of every scanning pixel was detected column by column on the basis of the maximum local variability of pixel intensity. The profile of the point-to-point firing time was indicated by a red line overlapping on the Ca^2+ image. Index of desynchronization, defined by the mean absolute deviation of firing time of each scanning pixel (with every 8 pixels binned), was used to evaluate the dyssynchrony of Ca^2+ transients. This automated software for calcium transient analysis is available upon request."}, "[2]": {"tested_on": "cultured adult murine cardiomyocytes", "assay": "RT-qPCR in cultured cardiomyocytes", "type": "cell-based, mouse", "settings": "compared with Ad-Empty infected cells", "protocol": "RNA of cultured cardiomyocytes was extracted using RNAeasy (Qiagene). Myocardium RNA was extracted using Trizol. Total RNA was treated with DNASE-I to eliminate genomic DNA and then cleaned using RNA cleanup Kit (Qiagene).\nSuperscript II were used for Reverse Transcription of mRNA. A QUANT STUDIO 3 real-time PCR machine was used to run qPCR. The primers used in RT-PCR were: […]"}, "[3]": {"tested_on": "cardiac transcription profile", "assay": "RNA-Seq of myocardium of JP2NT-OE mice", "type": "in vivo, mouse", "protocol": "Illumina TruSeq Stranded mRNA Library Prep Kit was used to prepare the sequencing library for myocardium samples. Sequencing was performed by Illumina HiSeq 2500 platform (2×125 bp paired-end). Kallisto (0.42.5) software (Bray et al., 2016) was used to quantify transcript abundance of mouse transcriptome (Grcm38). Sleuth (0.28.1) software (Pimentel et al., 2018) was used to investigate the differential expression of transcripts between groups (the cutoff of significance was p value<0.01)."}, "HEK293T cells": {"tested_on": "HEK293T cells", "assay": "Subcellular localization by confocal imaging", "type": "cell-based", "settings": "HEK293T cells and cardiomyocytes", "protocol": "Immunofluorescence was done as described previously (Guo et al., 2015). A Zeiss confocal microscope LSM510 was used for recording cell images.\nTo Investigate the molecular mechanism of JP2NT nuclear importation, an in silico analysis (Sigrist et al., 2002) was performed. […] These domains are evolutionarily conserved among species (FIGS. 18B-C). […] Indicating this NLS is Indispensable for nuclear localization of JP2NT. A fusion protein containing mCherry and the bNLS peptide with the ARR was imported into nuclei (FIG. 16D)."}, "cardiac hypertrophy": {"tested_on": "cardiac hypertrophy", "assay": "Angiotensin-induced cardiac hypertrophy in JP2NT OE mice", "type": "in vivo, mouse", "protocol": "A transgenic mouse line with cardiac specific overexpression of an exogenous protein sequence corresponding to JP2NT was prepared. JP2NT (JP2(1-565)) transgenic mice were generated based on a tet-off system. The Flag and HA tagged JP2NT cDNA was cloned downstream of tet-operated alpha-MHC promoter, enabling the cardiac specific and conditional expression of JP2NT (FIG. 9A). The plasmid (αMHC-JP2NT) was delivered by pronuclear injection into fertilized eggs to make transgenic founders. The transgenic mouse lines were backcrossed to C57 background for 9 generations. αMHC-JP2NT mice have been crossed with αMHC-tTA mice to generate double transgenic αMHC-tTA-JP2NT mice (noted as JP2NT OE mice). This allows for inducible and cardiac-specific expression of JP2NT, in which tTA binds to tet-operon and activates transcription of JP2NT. Thus, the expression and nuclear localization of JP2NT in transgenic mice have been confirmed."}},
  "data": [
    {"molecule": "B1", "values": [
      {"measurement": "MEF2-responsive luciferase signal", "setting": "[1]", "value": "attenuated the MEF2-responsive signal in a dose-dependent manner"},
      {"measurement": "restoration of Ca2+ transients", "setting": "JP2-KD cardiomyocytes", "value": "failed to restore"},
      {"measurement": "cardiac hypertrophy markers ANP and BNP (mRNA)", "setting": "[2]", "value": "not altered"},
      {"measurement": "mRNA levels of KLF4, KLF6, Myc, TGFβR1, NFKBIA, FOXO1, PI3KR1 et al", "setting": "[2]", "value": "significantly decreased"},
      {"measurement": "ERK, TGF-β, CREB and NFκ-B signaling pathways (IPA)", "setting": "[3]; TAB", "value": "predicted inhibition"},
      {"measurement": "known genes of negatively influenced transcripts", "setting": "[3]; TAB", "value": 481, "unit": "genes"},
      {"measurement": "known genes of positively influenced transcripts", "setting": "[3]; TAB", "value": 476, "unit": "genes"},
      {"measurement": "transcripts negatively influenced", "setting": "[3]; TAB", "value": 540, "unit": "transcripts"},
      {"measurement": "transcripts positively influenced", "setting": "[3]; TAB", "value": 542, "unit": "transcripts"},
      {"measurement": "transcripts significantly different in response to cardiac stress", "setting": "[3]; TAB, linear regression model, p<0.01", "value": 1082, "unit": "transcripts"},
      {"measurement": "known genes from which the significantly different transcripts derive", "setting": "[3]; TAB, p<0.01", "value": 954, "unit": "genes"},
      {"measurement": "significantly altered genes (p<0.01) at baseline", "setting": "[3]; baseline, relative to control littermates", "value": 49, "unit": "genes"},
      {"measurement": "nuclear localization / nuclear importation", "setting": "HEK293T cells", "value": "highly enriched in nuclei"},
      {"measurement": "Angiotensin-li induced cardiac hypertrophy", "setting": "cardiac hypertrophy", "value": "resistant"}
    ]}
  ]
}
